Molecular target: T1, HER2 on BT474 cells (Homo sapiens, BT474 cells, UniProt P04626)
T1 construct: HER2 (human epidermal growth factor receptor 2) on HER2-overexpressing BT474 breast cancer cells; source: endogenous, on BT474 cells
Assay: flow cytometry on cells; BT474 cells with 1, 10 or 100 nM of the AF647-carrying memAb complex
Conditions: one partner purified

B1: memAb pertuzumab IgG with pre-bound 5-diphenylalanine-meditope-Alexa-647 (complex)
VH: EVQLVESGGGLVQPGGSLRLSCAASGFTFTDYTMDWVRQSPGKGLEWVADVNPNSGGSIYNQRFKGRFTLSVDRSKNTLYLQMNSLRAEDTAIYYCARNLGDGFYAMDYWGQGTLVTVSS
VL: DIQLTQSPVILSASVGDRVTITCRAGESVDIFGVGFLHWYQQRTNGSPRLLIYRASNLESGVPSRFSGSGSRTDFTLTISSLQPEDEADYYCQQTNEDPYTFGAGTKVEIK
notes: as the heavy chain of Dm25; as the light chain of Dm25; as the peptide Dm26; non-covalent complex; source: IgG: ExpiCHO, purified; peptide: synthetic; copies: + +
**Q.** Does B1 bind?
**A.** binds
